# Laboratory results published in PMC11286949, “Structural basis of tRNA recognition by the widespread OB fold”.
# T1: Arc1p dN (Saccharomyces cerevisiae, UniProt P46672 132-376, del1-131)
# T1 sequence: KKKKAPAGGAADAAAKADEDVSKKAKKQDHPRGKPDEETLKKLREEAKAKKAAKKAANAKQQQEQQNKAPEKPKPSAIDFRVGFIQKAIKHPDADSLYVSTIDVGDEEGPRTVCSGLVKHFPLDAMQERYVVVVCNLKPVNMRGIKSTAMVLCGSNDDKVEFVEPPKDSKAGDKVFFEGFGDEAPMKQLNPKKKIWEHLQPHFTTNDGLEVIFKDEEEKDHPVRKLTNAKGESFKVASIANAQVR
# T2: Arc1p (Saccharomyces cerevisiae, UniProt P46672 1-376)
# T2 sequence: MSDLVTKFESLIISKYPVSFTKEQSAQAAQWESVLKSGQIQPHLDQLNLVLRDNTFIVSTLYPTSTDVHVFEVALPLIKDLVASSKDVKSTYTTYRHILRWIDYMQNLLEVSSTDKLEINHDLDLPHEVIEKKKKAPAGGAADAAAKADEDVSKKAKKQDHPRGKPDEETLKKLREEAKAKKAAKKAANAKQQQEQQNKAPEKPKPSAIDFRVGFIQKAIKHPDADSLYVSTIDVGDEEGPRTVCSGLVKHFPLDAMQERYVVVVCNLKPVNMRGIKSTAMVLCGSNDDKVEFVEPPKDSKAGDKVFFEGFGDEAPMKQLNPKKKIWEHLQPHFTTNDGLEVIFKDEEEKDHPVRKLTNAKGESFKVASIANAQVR
# Columns and labels:
# Trbp111 [1] = biological target: T3, Trbp111 (Aquifex aeolicus, UniProt O66738 1-111); assay: competition fluorescence polarization; ITC (Arc1p): 25 mM Tris-HCl pH 7.4, 150 mM NaCl, 2 mM MgCl2, 25 °C. FP and competition FP: 25 mM Tris-HCl pH 7.5, 150 mM NaCl (Arc1p) or 50 mM NaCl (Trbp111), 2 mM MgCl2, room temperature; conditions: protein: recombinant, tags: His-MBP removed (PreScission), chain copies: 2
# Arc1p dN [2] = biological target: T1, Arc1p dN; assay: as above; conditions: protein: recombinant, tags: His-MBP removed
# Arc1p = biological target: T2, Arc1p; assay: as above; conditions: protein: recombinant, tags: His-MBP removed
# Arc1p dN [3] = biological target: T1, Arc1p dN; assay: ITC; ITC (Arc1p): 25 mM Tris-HCl pH 7.4, 150 mM NaCl, 2 mM MgCl2, 25 °C. FP and competition FP: 25 mM Tris-HCl pH 7.5, 150 mM NaCl (Arc1p) or 50 mM NaCl (Trbp111), 2 mM MgCl2, room temperature; conditions: protein: recombinant, tags: His-MBP removed
# Trbp111 [4] = biological target: T3, Trbp111; assay: competition FP; vs fluorescein-tRNATyr; FP: 25 mM Tris-HCl pH 7.5, 2 mM MgCl2, 50 mM NaCl (Trbp111) or 150 mM NaCl (Arc1p), room temperature; ITC: 25 mM Tris-HCl pH 7.4, 150 mM NaCl, 2 mM MgCl2, 25 C; conditions: protein: recombinant; tags: His-MBP removed (PreScission); chain copies: 2; single strand
# T3 sequence (O66738 entry or part of it): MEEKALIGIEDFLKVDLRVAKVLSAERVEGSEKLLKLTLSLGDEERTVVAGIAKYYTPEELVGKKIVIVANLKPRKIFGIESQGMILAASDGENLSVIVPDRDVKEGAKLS
binder,measurement,setting,value
AGGCUUGGGUGGUUCAAGUCCACUCAGGCCUACCAUUUU (structured_RNA) [MiniH +UUUU],binding result,Trbp111 [1]; hairpin,no binding
same,IC50,Arc1p dN [2]; hairpin,9.39 ± 0.782 µM
tRNAIle ASL-GAAA dACCA 3bp (structured_RNA) RNA: GGCGGGCUUGUAGCUCAGGUGGUUAGAGCGCACCGCGAAAGCGGUGAGGUCGGUGGUUCAAGUCCACUCAGGCCCGCC,IC50,Arc1p,9.92 µM
same,IC50,Arc1p dN [2],0.681 ± 0.201 µM
AGGCUUGGGUGGUUCAAGUCCACUCAGGCCU (structured_RNA) [MiniH dACCA],binding result,Trbp111 [1]; hairpin,no binding
same,IC50,Arc1p dN [2]; hairpin,10.5 ± 2.82 µM
tRNAIle 3'UGGU (structured_RNA) RNA: AGGCUUGUAGCUCAGGUGGUUAGAGCGCACCCCUGAUAAGGGUGAGGUCGGUGGUUCAAGUCCACUCAGGCCUUGGU,Kd,Arc1p dN [3]; tRNA fold,0.654 ± 0.165 µM
"tRNAIle G18C/G19C (A1, Suppl. Fig. 13b) (structured_RNA) RNA: AGGCUUGUAGCUCAGGUCCUUAGAGCGCACCCCUGAUAAGGGUGAGGUCGGUGGUUCAAGUCCACUCAGGCCUACCA",IC50,Arc1p dN [2],0.804 ± 0.107 µM
"tRNAIle G18C/G19C (G1, Fig. 5a) (structured_RNA) RNA: GGGCUUGUAGCUCAGGUCCUUAGAGCGCACCCCUGAUAAGGGUGAGGUCGGUGGUUCAAGUCCACUCAGGCCUACCA",Kd,Arc1p dN [3]; elbow disrupted,3.33 µM
MiniH dLoop+6bp (dsRNA) RNA 1: GCAUGACCACUCAGGCCUACCA RNA 2: AGGCUUGGGUGGUUAUGC,IC50,Arc1p dN [2],3.47 ± 0.263 µM
ACCACUCACGCCU (ssRNA) [ssRNA 5'ACCA],binding result,Trbp111 [1]; single strand,no binding
CCACUCAGGCCU (ssRNA) [ssRNA dACCA],binding result,Trbp111 [1]; single strand,no binding
tRNAIle d3'A (structured_RNA) RNA: AGGCUUGUAGCUCAGGUGGUUAGAGCGCACCCCUGAUAAGGGUGAGGUCGGUGGUUCAAGUCCACUCAGGCCUACC,Kd,Arc1p dN [3]; tRNA fold,1.04 ± 0.295 µM
AGGCUUGGGUGGUUCAAGUCCACUCAGGCCUACAA (structured_RNA) [MiniH-ACAA],IC50,Arc1p dN [2],3.08 ± 0.63 µM
AGGCUUGGGUGGUUCAAGUCCACUCAGGCCUACGA (structured_RNA) [MiniH-ACGA],IC50,Arc1p dN [2],4.83 ± 0.11 µM
AGGCUUGGGUGGUUCAAGUCCACUCAGGCCUACAC (structured_RNA) [MiniH-ACAC],IC50,Arc1p dN [2]; hairpin,3.92 ± 0.672 µM
AGGCUUGGGUGGUUCAAGUCCACUCAGGCCUACUA (structured_RNA) [MiniH-ACUA],IC50,Arc1p dN [2],2.6 ± 0.397 µM
"AGGCUUGGGUGGUUCAAGUCCACUCAGGCCUACCA (mixed, four terminal deoxyriboses) [MiniH DNA tail]",IC50,Trbp111 [1]; hairpin,7.51 ± 1.02 µM
AGGCUUCGAAAGAGGCCUUGGU (structured_RNA) [MicroH UGGU],binding result,Trbp111 [1]; hairpin,no binding
same,IC50,Arc1p dN [2]; hairpin,43 ± 7.65 µM
AGGCUUGGGUGCGAAAGCACUCAGGCCUACCA (structured_RNA) [MiniH LoopGAAA],IC50,Arc1p dN [2],3.06 ± 0.0821 µM
tRNAIle G18C/G19C/dACCA (structured_RNA) RNA: GGGCUUGUAGCUCAGGUCCUUAGAGCGCACCCCUGAUAAGGGUGAGGUCGGUGGUUCAAGUCCACUCAGGCCC,Kd,Arc1p dN [3]; elbow disrupted,2.79 ± 0.304 µM
tRNAIle dACCA (structured_RNA) RNA: GGGCUUGUAGCUCAGGUGGUUAGAGCGCACCCCUGAUAAGGGUGAGGUCGGUGGUUCAAGUCCACUCAGGCCC,Kd,Arc1p dN [3]; tRNA fold,2.1 ± 0.985 µM
tRNATyr ASL-GAAA dACCA 6bp (structured_RNA) RNA: GGGCCCGGUGGGGUUCCCGAGCGGCCAAAGGGAGCAGACGAAAGUCUGCCGUCAUCGACUUCGAAGGUUCGAAUCCUUCCCCCACCGGGCCC,IC50,Arc1p,5.11 µM
same,IC50,Arc1p dN [2],1.02 ± 0.224 µM
tRNAIle ASL-GAAA/dACCA (structured_RNA) RNA: GGGCUUGUAGCUCAGGUGGUUAGAGCGCACCGCGAAAGCGGUGAGGUCGGUGGUUCAAGUCCACUCAGGCCC,Kd,Arc1p dN [3]; tRNA fold,1.75 ± 0.958 µM
AGGCUUGGGUGGUUUUUUUCCACUCAGGCCUACCA (structured_RNA) [MiniH ULoop],IC50,Arc1p dN [2],3.95 ± 0.248 µM
tRNAIle ASL-GAAA (structured_RNA) RNA: GGGCUUGUAGCUCAGGUGGUUAGAGCGCACCGCGAAAGCGGUGAGGUCGGUGGUUCAAGUCCACUCAGGCCUACCA,Kd,Arc1p dN [3]; tRNA fold,0.252 ± 0.11 µM
tRNATyr G17C/G18C (structured_RNA) RNA: GGUGGGGUUCCCGAGCCCCCAAAGGGAGCAGACUGUAAAUCUGCCGUCAUCGACUUCGAAGGUUCGAAUCCUUCCCCCACCACCA,IC50,Arc1p,4.52 µM
same,IC50,Arc1p dN [2],0.652 ± 0.0471 µM
CCACUCAGGCCUACCA (ssRNA) [ssRNA 3'ACCA],IC50,Trbp111 [4],8.2 ± 0.8 µM
same,IC50,Trbp111 [1]; single strand,8.63 ± 0.796 µM
AGGCUUGGGUGGUUCAAGUCCACUCAGGCCUACA (structured_RNA) [MiniH dC74],IC50,Trbp111 [1]; hairpin,5.06 ± 0.269 µM
same,IC50,Arc1p dN [2]; hairpin,3.03 ± 0.158 µM
AGGCUUGGGUGGUUCAAGUCCACUCAGGCCUCCA (structured_RNA) [MiniH dA73],IC50,Trbp111 [1]; hairpin,5.21 ± 0.817 µM
same,IC50,Arc1p dN [2]; hairpin,2.45 ± 0.511 µM
MiniH dLoop+4bp (dsRNA) RNA 1: GUGACCACUCAGGCCUACCA RNA 2: AGGCUUGGGUGGUUAC,IC50,Arc1p dN [2],3.9 ± 0.124 µM
tRNAIle ASL-GAAA/5'GGCC (structured_RNA) RNA: GGCCGGGCUUGUAGCUCAGGUGGUUAGAGCGCACCGCGAAAGCGGUGAGGUCGGUGGUUCAAGUCCACUCAGGCCC,Kd,"Arc1p dN [3]; palindromic tail, strong dimer",3.3 µM
tRNAIle ASL-GAAA/5'GC (structured_RNA) RNA: GCGGGCUUGUAGCUCAGGUGGUUAGAGCGCACCGCGAAAGCGGUGAGGUCGGUGGUUCAAGUCCACUCAGGCCC,Kd,"Arc1p dN [3]; palindromic tail, weak dimer",1.5 ± 0.283 µM
AGGCUUUUCAAGUAGGCCUUGGU (structured_RNA) [MicroH 3'UGGU],IC50,Arc1p dN [2],15.3 ± 3.31 µM
AGGCUUUUCAAGUAGGCCU (structured_RNA) [MicroH dACCA],IC50,Arc1p dN [2]; hairpin,53.7 ± 5.22 µM
AGGCUUCGAAAGAGGCCUACCA (structured_RNA) [MicroH GAAA loop],IC50,Trbp111 [1]; hairpin,5.92 ± 0.188 µM
same,IC50,Arc1p dN [2]; hairpin,13.4 ± 5.38 µM
human mascRNA (structured_RNA) RNA: GAUGCUGGUGGUUGGCACUCCUGGUUUCCAGGACGGGGUUCAAAUCCCUGCGGCGUCUCCA,IC50,Arc1p; tRNA-like,1.14 ± 0.127 µM
same,IC50,Arc1p dN [2]; tRNA-like,0.377 ± 0.0571 µM
MiniH dLoop+2bp (dsRNA) RNA 1: GACCACUCAGGCCUACCA RNA 2: AGGCUUGGGUGGUC,IC50,Arc1p dN [2],4.66 ± 1.43 µM
S. cerevisiae tRNAAsp (G1-C72) (structured_RNA) RNA: GCCGUGAUAGUUUAAUGGUCAGAAUGGGCGCUUGUCGCGUGCCAGAUCGGGGUUCAAUUCCCCGUCGCGGCGCCA,IC50,Arc1p,1.71 ± 0.125 µM
same,IC50,Arc1p dN [2],0.402 ± 0.0538 µM
MiniH dLoop (dsRNA) RNA 1: CCACUCAGGCCUACCA RNA 2: AGGCUUGGGUGG,IC50,Arc1p dN [2],2.26 ± 1.21 µM
